Experimental data as given in patent publication US20240165282A1, “CONFORMATIONAL CONSTRAINED SOMATOSTATIN RECEPTOR 3 PEPTIDE LIGANDS AND THEIR CONJUGATES AND USES THEREOF” (STARGET PHARMA LTD., priority 2021, published 2024).
*1 amine or outer side, *2 acyl side, *3 side chain or, on linkers, in order; H or OH if unused. Bridges are numbered along the chain shown (N, C = ends). [ ]: non-standard residue; d: D form. The star is where a group is joined. DOTA = O=C(O)CN1CCN(CC(=O)O)CCN(CC(=O)*)CCN(CC(=O)O)CC1; N(2-mercaptoethyl)Gly = O=C(CN(CCS[*:3])[*:1])[*:2]; Aoc = NCCCCCCCC(=O)O; GABA = NCCCC(=O)O

Legend:
Assay in all cases: Radioligand binding, displacement of 125I-Tyr11-SRIF-14
SSTR5 = SSTR5 (Homo sapiens, UniProt P35346); parameters: host or cells: Chem-1 (Rat ChemiSCREEN) cells, membrane preparation; settings: hSSTR-5
From the text: (§1) The binding to human cloned receptors SSTR-1, or SSTR-2 or SSTR-3 evaluated in stable and selective transfected CHO (Chinese Hamster Ovary) cells and binding to STSR-4 and SSTR-5 in stable and selective transfected Chem-1 (Rat ChemiSCREEN) cells. […] The binding reactions were filtered, the filters were washed, and the bound radioactivity was counted using a gamma counter.
(§2) The following table depicts the conditions of binding assay to each of the somatostatin receptors used for the evaluations of binding affinities of the tested peptides. All assays were performed by quantitation method of radioligand binding under 25° C. The vehicle was 1% DMSO, the incubation buffer was 25 mM HEPES, pH 7.4, 5 mM MgCl2, 1 mM CaCl2, 0.1% BSA. […] The significance criteria were >50% of max inhibition. […] This specific binding data used for calculation of Bmax values which is the concentration of each of the expressed cloned receptor in its transfected cell system.
(§3) The Results of IC50 values were determined by a non-linear, least squares regression analysis using MathIQ™ (ID Business Solutions Ltd., UK). […] The Hill coefficient (nH), defining the slope of the competitive binding curve, was calculated using MathIQ™.

SSTR1 = SSTR1 (Homo sapiens, UniProt P30872); parameters: host or cells: CHO (Chinese Hamster Ovary) cells, membrane preparation; settings: hSSTR-1
From the text: as §1, §2, §3

SSTR3 = SSTR3 (Homo sapiens, UniProt P32745); parameters: host or cells: CHO (Chinese Hamster Ovary) cells, membrane preparation; settings: for % displacement of [^125I] Tyr^11-SRIF-14: hSSTR-3; for affinity and selectivity to SSTR3 (in words): binding data
From the text: as §1, §2, §3

SSTR2 = SSTR2 (Homo sapiens, UniProt P30874); parameters: host or cells: CHO (Chinese Hamster Ovary) cells, membrane preparation; settings: hSSTR-2
From the text: as §1, §2, §3

hSSTR-4 = molecular target: T1, hSSTR-4 (Homo sapiens, UniProt P31391); settings: hSSTR-4
T1 construct: host or cells: Chem-1 (Rat ChemiSCREEN) cells, membrane preparation
From the text: as §1, §2, §3

Sequence of SSTR5 (P35346 whole entry): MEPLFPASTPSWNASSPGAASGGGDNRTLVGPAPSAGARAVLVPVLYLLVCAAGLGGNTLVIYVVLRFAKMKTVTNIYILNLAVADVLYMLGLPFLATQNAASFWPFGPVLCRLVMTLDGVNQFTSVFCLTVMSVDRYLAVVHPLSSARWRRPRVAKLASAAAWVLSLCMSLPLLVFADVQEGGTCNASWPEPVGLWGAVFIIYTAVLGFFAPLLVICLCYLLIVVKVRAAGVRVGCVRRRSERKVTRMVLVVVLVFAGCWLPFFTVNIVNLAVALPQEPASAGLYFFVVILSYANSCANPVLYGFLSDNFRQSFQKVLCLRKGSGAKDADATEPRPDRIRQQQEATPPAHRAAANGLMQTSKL
T1 sequence (P31391 whole entry): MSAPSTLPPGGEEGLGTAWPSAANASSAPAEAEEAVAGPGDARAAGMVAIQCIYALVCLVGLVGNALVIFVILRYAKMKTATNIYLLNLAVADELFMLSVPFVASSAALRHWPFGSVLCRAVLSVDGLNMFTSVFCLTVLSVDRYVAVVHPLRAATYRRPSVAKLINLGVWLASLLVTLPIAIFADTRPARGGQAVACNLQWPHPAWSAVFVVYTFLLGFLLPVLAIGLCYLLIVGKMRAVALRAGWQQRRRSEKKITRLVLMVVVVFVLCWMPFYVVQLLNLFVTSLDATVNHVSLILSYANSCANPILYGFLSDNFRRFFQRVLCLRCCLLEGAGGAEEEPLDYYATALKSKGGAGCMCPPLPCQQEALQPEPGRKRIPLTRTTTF
Sequence of SSTR1 (P30872 whole entry): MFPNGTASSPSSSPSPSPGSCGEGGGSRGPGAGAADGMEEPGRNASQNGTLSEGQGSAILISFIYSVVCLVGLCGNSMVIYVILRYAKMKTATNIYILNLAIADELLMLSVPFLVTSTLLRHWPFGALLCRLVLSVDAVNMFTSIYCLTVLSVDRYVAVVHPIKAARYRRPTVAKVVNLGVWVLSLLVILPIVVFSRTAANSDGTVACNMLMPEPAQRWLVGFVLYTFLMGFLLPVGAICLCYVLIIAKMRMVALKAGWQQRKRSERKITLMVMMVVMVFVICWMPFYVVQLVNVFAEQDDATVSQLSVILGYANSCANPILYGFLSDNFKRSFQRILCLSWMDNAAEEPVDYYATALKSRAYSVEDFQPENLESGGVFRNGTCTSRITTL
Sequence of SSTR3 (P32745 whole entry): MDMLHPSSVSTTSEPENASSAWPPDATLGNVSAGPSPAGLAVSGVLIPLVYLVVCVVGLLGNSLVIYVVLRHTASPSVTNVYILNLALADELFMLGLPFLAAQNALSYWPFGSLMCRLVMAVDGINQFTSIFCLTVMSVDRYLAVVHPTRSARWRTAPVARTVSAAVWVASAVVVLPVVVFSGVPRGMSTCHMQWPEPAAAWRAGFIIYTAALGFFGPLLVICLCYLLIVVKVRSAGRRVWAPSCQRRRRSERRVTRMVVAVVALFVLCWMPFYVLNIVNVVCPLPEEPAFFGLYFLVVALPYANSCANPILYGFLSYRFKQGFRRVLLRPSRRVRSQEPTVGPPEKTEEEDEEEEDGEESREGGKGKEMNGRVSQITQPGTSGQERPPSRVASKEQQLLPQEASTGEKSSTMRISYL
Sequence of SSTR2 (P30874 whole entry): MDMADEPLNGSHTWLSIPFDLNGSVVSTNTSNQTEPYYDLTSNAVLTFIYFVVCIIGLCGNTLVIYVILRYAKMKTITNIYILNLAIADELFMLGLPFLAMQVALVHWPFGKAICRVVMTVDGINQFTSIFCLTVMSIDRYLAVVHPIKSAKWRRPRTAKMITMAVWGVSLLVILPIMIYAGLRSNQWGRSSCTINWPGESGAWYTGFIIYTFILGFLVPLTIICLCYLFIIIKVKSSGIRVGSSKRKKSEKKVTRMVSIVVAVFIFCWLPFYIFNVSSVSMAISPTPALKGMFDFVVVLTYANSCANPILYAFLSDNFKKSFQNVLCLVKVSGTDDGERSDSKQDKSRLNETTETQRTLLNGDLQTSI

Row | Substance | % displacement of [^125I] Tyr^11-SRIF-14 (SSTR5; at 1 nM (in brackets)) | % displacement of [^125I] Tyr^11-SRIF-14 (SSTR5; at 10 nM) | % displacement of [^125I] Tyr^11-SRIF-14 (SSTR1; at 1 nM (in brackets)) [%] | % displacement of [^125I] Tyr^11-SRIF-14 (SSTR1; at 10 nM) [%] | % displacement of [^125I] Tyr^11-SRIF-14 (SSTR3; at 1 nM (in brackets)) [%] | % displacement of [^125I] Tyr^11-SRIF-14 (SSTR3; at 10 nM) [%] | % displacement of [^125I] Tyr^11-SRIF-14 (SSTR2; at 1 nM (in brackets)) | % displacement of [^125I] Tyr^11-SRIF-14 (SSTR2; at 10 nM) | % displacement of [^125I] Tyr^11-SRIF-14 (hSSTR-4; at 1 nM (in brackets)) | % displacement of [^125I] Tyr^11-SRIF-14 (hSSTR-4; at 10 nM) | affinity and selectivity to SSTR3 (in words) (SSTR3) | affinity to SSTR3 (SSTR3) [nM]
1 | DOTA-Ala^1-D-Phe^2-Arg^3-Cys^4-Phe^5-D-Trp^6-Lys^7-Thr^8-Phe^9-NTEG^10-NH2 (cyclo 4-10) ({DOTA}-A[dF]RCF[dW]KTF[N(2-mercaptoethyl)Gly]-NH2; disulfide 4-10; SMILES C[C@H](NC(=O)CN1CCN(CC(=O)O)CCN(CC(=O)O)CCN(CC(=O)O)CC1)C(=O)N[C@H](Cc1ccccc1)C(=O)N[C@@H](CCCNC(=N)N)C(=O)N[C@H]1CSSCCN(CC(N)=O)C(=O)[C@H](Cc2ccccc2)NC(=O)[C@H]([C@@H](C)O)NC(=O)[C@H](CCCCN)NC(=O)[C@@H](Cc2c[nH]c3ccccc23)NC(=O)[C@H](Cc2ccccc2)NC1=O) [SEQ ID NO: 12] | 0% | 13% | 0 | 10 | 64 | 93 | 0(0) % | 0(0) % | 0(0) % | 0(0) % |  | 
2 | H-Phe^1-Arg^2-Cys^3-Phe^4-D-Trp^5-Lys^6-Thr^7-Tyr^8-NTEG^9-NH2 (cyclo 3-9) (H-XRCF[dW]KTY[N(2-mercaptoethyl)Gly]-NH2; disulfide 3-9; not fully specified (residue 1); printed as H-Phe1-Arg2-Cys3-Phe4-D-Trp5-Lys6-Thr7-Tyr8-NTEG9-NH2 (cyclo 3-9)) [SEQ ID NO: 26] | 0% | 1% | 0 | 24 | 53 | 86 | 0(0) % | 0(0) % | 0(0) % | 0(0) % |  | 
3 | DOTA-Gly^1-D-Phe^2-Arg^3-Cys^4-Phe^5-D-Trp^6-Lys^7-Thr^8-Phe^9-NTEG^10-NH2 (cyclo 4-10) ({DOTA}-G[dF]RCF[dW]KTF[N(2-mercaptoethyl)Gly]-NH2; disulfide 4-10; SMILES C[C@@H](O)[C@@H]1NC(=O)[C@H](CCCCN)NC(=O)[C@@H](Cc2c[nH]c3ccccc23)NC(=O)[C@H](Cc2ccccc2)NC(=O)[C@@H](NC(=O)[C@H](CCCNC(=N)N)NC(=O)[C@@H](Cc2ccccc2)NC(=O)CNC(=O)CN2CCN(CC(=O)O)CCN(CC(=O)O)CCN(CC(=O)O)CC2)CSSCCN(CC(N)=O)C(=O)[C@H](Cc2ccccc2)NC1=O) [SEQ ID NO: 11] | 0(0) % | 0(0) % | 2 | 19 | 47 | 88 | 0(0) % | 0(0) % | 0(0) % | 0(0) % |  | 
4 | H-Arg^1-Gly^2-Asp^3-D-Phe^4-Arg^5-Cys^6-Phe^7-D-Trp^8-Lys^9-Thr^10-Phe^11 -NTEG^12-NH^2 (cyclo 6-12) (H-RGD[dF]RCF[dW]KTF[N(2-mercaptoethyl)Gly]-NH2; disulfide 6-12; SMILES C[C@@H](O)[C@@H]1NC(=O)[C@H](CCCCN)NC(=O)[C@@H](Cc2c[nH]c3ccccc23)NC(=O)[C@H](Cc2ccccc2)NC(=O)[C@@H](NC(=O)[C@H](CCCNC(=N)N)NC(=O)[C@@H](Cc2ccccc2)NC(=O)[C@H](CC(=O)O)NC(=O)CNC(=O)[C@@H](N)CCCNC(=N)N)CSSCCN(CC(N)=O)C(=O)[C@H](Cc2ccccc2)NC1=O) [SEQ ID NO: 13] | 0% | 4% | 9 | 15 | 36 | 78 | 0% | 12% | 0(0) % | 0(0) % | did not interfere with the affinity and selectivity of SEQ ID NO: 3 to SSTR3 | 
5 | Niraparib-CO(CH2)3CO-D-Phe^1-Arg^2-Cys^3-Phe^4-D-Trp^5-Lys^6-Thr^7-Phe^8-NTEG^9-NH2 cyclo 3-9 [SEQ ID NO: 28] | 0(0) % | 0(0) % | 12 | 23 | 28 | 79 | 0(0) % | 0(0) % | 0(0) % | 0(0) % | the same selectivity to SSTR3 as SEQ ID NO: 1 | ≤ 10
6 | DOTA-Lys^1-D-Phe^2-Arg^3-Gly^4-Asp^5-Glu^6-GABA-D-Phe^7-Lys^8-Cys^9-Phe^10-D-Trp^11-Lys^12- Thr^13-Phe^14-NTEG^15-NH2 (cyclo 1-6; cyclo 9-15) ({DOTA}-K[dF]RGDE[GABA][dF]KCF[dW]KTF[N(2-mercaptoethyl)Gly]-NH2; lactam 1-6; disulfide 10-16; not fully specified; printed as DOTA-Lys1-D-Phe2-Arg3-Gly4-Asp5-Glu6-GABA-D-Phe7-Lys8-Cys9-Phe10-D-Trp11-Lys12- Thr13-Phe14-NTEG15-NH2 (cyclo 1-6, cyclo 9-15); numbers in words are those of the source; also: cyclo 1-6 listed as disulfide between Lys1 and Glu6) [SEQ ID NO: 17] | 15% | 13% | 9 | 15 | 68 | 91 | 11% | 8% | 7% | 5% |  | 
7 | DOTA-8-aminooctanoic acid-D-Phe^1-Arg^2-Cys^3-Phe4-D-Trp^5-Lys^6-Thr^7-Phe^8-NTEG^9-NH^2(cyclo 3-9) ({DOTA-Aoc}-[dF]RCF[dW]KTF[N(2-mercaptoethyl)Gly]-NH2; disulfide 3-9) [SEQ ID NO: 15] | 0(0) % | 0(0) % | 6 | 18 | 49 | 87 | 1% | 0% | 0(0) % | 0(0) % |  | 
8 | DOTA-D-Phe^1-Arg^2-Cys^3-Tyr^4-D-Trp^5-Lys^6-Thr^7-Phe^8-NTEG^9-NH2 (cyclo 3-9) ({DOTA}-[dF]RCY[dW]KTF[N(2-mercaptoethyl)Gly]-NH2; disulfide 3-9; SMILES C[C@@H](O)[C@@H]1NC(=O)[C@H](CCCCN)NC(=O)[C@@H](Cc2c[nH]c3ccccc23)NC(=O)[C@H](Cc2ccc(O)cc2)NC(=O)[C@@H](NC(=O)[C@H](CCCNC(=N)N)NC(=O)[C@@H](Cc2ccccc2)NC(=O)CN2CCN(CC(=O)O)CCN(CC(=O)O)CCN(CC(=O)O)CC2)CSSCCN(CC(N)=O)C(=O)[C@H](Cc2ccccc2)NC1=O) [SEQ ID NO: 25] | 6% | 16% | 1 | 15 | 65 | 94 | 0(0) % | 0(0) % | 5% | 8% |  | 
